Consider two molecules from patent publication US20100254979A1 (CISTHERA, published 2010).

For assay [1], the target named is PAI-1 (antigen of Example 11, species not stated) (Homo sapiens (Human)) (UniProt P05121). The assay can be described thus: biosensor kinetics, 25 C, global 1:1 fit.
Assay [2] deals with PAI-1 (immobilised antigen of the P-ELISA of FIG. 13, species not stated). The experiment in a line: P-ELISA on immobilised biotinylated PAI-1 (species not stated), A450; antibody spiked into plasma with EDTA.
Assay [3] has the same target. The assay can be described thus: P-ELISA on immobilised biotinylated PAI-1 (species not stated), A450; antibody without plasma, with or without EDTA.
In the next assay the target is T1, mouse PAI-1 (mouse, UniProt P22777 23-402, limits assumed, n-terminal biotin label in the P-ELISA).
T1 construct: also called murine PAI-1
T1 sequence (looked up): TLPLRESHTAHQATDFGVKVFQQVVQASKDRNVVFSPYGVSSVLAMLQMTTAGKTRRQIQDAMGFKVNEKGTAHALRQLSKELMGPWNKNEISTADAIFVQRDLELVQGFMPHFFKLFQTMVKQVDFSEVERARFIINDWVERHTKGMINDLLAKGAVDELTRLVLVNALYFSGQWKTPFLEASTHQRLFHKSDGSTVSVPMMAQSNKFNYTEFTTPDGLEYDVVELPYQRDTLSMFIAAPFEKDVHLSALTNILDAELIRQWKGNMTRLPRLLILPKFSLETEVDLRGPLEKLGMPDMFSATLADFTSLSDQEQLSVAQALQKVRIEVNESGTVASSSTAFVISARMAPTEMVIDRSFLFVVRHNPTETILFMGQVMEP
The experiment in a line: P-ELISA.

The target in assay [4] is human PAI-1 (plasminogen activator inhibitor-1) (human, UniProt P05121 24-402, n-terminal biotin label in the P-ELISA). The experiment in a line: cell-based or functional assay.
The target of assay [5] is PAI-1 (antigen of Example 11, species not stated) (Homo sapiens (Human)) (UniProt P05121). The experiment in a line: biosensor kinetics, mAb captured on anti-human IgG surface at 5 densities, 25 C, global 1:1 fit.
In a further assay the target is T2, rat PAI-1 (rat, UniProt P20961 24-402, n-terminal biotin label in the P-ELISA).
T2 sequence (looked up): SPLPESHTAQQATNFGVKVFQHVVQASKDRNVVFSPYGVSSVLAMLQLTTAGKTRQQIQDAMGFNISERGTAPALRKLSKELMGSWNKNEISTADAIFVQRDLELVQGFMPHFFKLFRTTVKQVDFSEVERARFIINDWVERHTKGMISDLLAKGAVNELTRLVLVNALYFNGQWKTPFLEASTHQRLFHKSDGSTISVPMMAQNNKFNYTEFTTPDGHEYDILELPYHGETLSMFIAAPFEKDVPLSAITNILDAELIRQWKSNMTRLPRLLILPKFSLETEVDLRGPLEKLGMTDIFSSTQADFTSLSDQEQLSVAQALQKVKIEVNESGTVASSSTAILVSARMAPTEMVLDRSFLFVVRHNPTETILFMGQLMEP
The assay can be described thus: P-ELISA: biotinylated PAI-1 (panel title: Rat PAI-1) on Neutravidin-coated plate, HRP-conjugated secondary antibody, O.D. 450. Here is the method: All reagents are brought to room temperature (18-23° C.) and dilutions are made in Wash Buffer (1× TBS, 0.1% BSA, 0.05% Tween). Briefly, protocol steps are as follows: [0952] Add 100 μL of Neutravidin™ Pierce #31000 (0.5 μg/ml in TBS) to 96-well Immulon-4 plates. [0953] Incubate 1 hour at room temperature (RT). [0954] Wash wells 3 times with 200 μl Wash Buffer. [0955] Add 50 μL of biotinylated biomolecule (0.06 nM) Incubate 1 hour at RT. [0956] Wash plate 3 times in Wash Buffer. [0957] Add 100 μL of 1° Ab Incubate 30 min RT [0958] Wash plate 3 times in Wash Buffer. [0959] Add 50 μL of 2° Ab-HRP (1:10,000) Incubate 30 min RT [0960] Wash plate 4 times in Wash Buffer. [0961] Add 100 μl TMB Reagent (substrate). Incubate at room temperature. [0962] Add 100 μL of 2 M Sulfuric Acid to stop development of the substrate. [0963] Plates were read using a 450 nm filter with a 615-620 nm filter as the reference.
Binding of CT140 to rat, mouse, rabbit and human PAI-1 was determined by P-ELISA (see FIG. 12). The relative affinity of CT140 is human=rabbit>mouse>rat (FIG. 12A, FIG. 12B, FIG. 12C and FIG. 12D, respectively).

Where only a bound is given, the exact number is not on record here.

PAI-1 (immobilised antigen of the P-ELISA of FIG. 13, species not stated), sequence (P05121 24-402): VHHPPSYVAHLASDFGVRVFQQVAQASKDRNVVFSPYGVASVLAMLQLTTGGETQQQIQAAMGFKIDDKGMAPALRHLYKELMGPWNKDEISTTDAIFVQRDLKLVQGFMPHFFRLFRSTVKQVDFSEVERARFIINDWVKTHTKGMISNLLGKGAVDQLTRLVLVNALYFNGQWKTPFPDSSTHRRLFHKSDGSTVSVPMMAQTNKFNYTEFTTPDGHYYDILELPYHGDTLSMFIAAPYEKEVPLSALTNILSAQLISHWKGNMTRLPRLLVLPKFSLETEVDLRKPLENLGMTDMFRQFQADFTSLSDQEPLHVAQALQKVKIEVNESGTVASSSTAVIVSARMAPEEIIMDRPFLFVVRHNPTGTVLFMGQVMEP
human PAI-1 (plasminogen activator inhibitor-1), sequence (P05121 24-402 limits assumed): as the sequence (P05121 24-402) above

B1: murine monoclonal antibody 33B8 (MA-33B8) (antibody, V domains shown)
VH: QIQLVQSGPELKKPGKTVTISCKASGYTFTNYGMNWVKQAPGKGLKWMGWINTYTGEPTYTDDFKGRFAFSLDTSASTAYLQISNLKNEDTATYFCAKDVSGFVFDYWGQGTTVTVSS
VL: DIVMTQSPSSLAVSVGEKVTMSCKSSQSLLNIIKQKNCLAWYQQKPGQSPKLLIYWASTRESGVPDRFTGSGSGTDFTLTISSVKAEDLAVYYCQQYYSYPYTFGGGTKLEIK
Take B1: in assay [1], the Kd was 8.01 nM, the koff was 0.00314 s⁻¹ and the kon turned out to be 393000 M⁻¹ s⁻¹. In assay [2], the half-maximal effective concentration (EC50 (read off the curve)) turned out to be 0.4 µg/mL. The EC50 (read off the curve) in assay [3] amounted to 0.1 µg/mL.

B2: CT140 (humanized 33B8 anti-PAI-1 antibody, IgG4 with IgG1 hinge) (antibody, V domains shown)
VH: QVQLVQSGAEVKKPGASVKVSCKASGYTFTNYGMNWVRQAPGQGLEWMGWINTYTGEPTYTDDFKGRFTMTLDTSISTAYMELSRLRSDDTAVYYCAKDVSGFVFDYWGQGTLVTVSS
VL: DIVMTQSPDSLAVSLGERATINCKSSQSLLNIIKQKNCLAWYQQKPGQPPKLLIYWASTRESGVPDRFSGSGSGTDFTLTISSLQAEDVAVYYCQQYYSYPYTFGQGTKLEIKR
notes: The IgG4 hinge was replaced by that of IgG1; also called hP-1; humanized mAb CT140
On to B2, for which the “fold greater affinity relative to the parent mouse anti-PAI-1” value with mouse PAI-1 is more than 10 fold. Also, in assay [4], the “EC50 (read off the curve)” value is approximately 10 µg/mL. In assay [5], this molecule returned a Kd of 0.015 nM, a koff of 8e-06 s⁻¹ and an association rate constant (kon) of 530000 M⁻¹ s⁻¹. Besides, the binding result with rat PAI-1 was “binds”.
